Experimental findings from PMC5074314, “Maltase protein of Ogataea (Hansenula) polymorpha is a counterpart to the resurrected ancestor protein ancMALS of yeast maltases and isomaltases” (Yeast (Chichester, England), 2016) are described below.

Data set [1] addresses T1, Op MAL1 (maltase protein MAL1 of Ogataea polymorpha) (Ogataea angusta, UniProt Q9P8G8).
T1 sequence (Q9P8G8 1-564): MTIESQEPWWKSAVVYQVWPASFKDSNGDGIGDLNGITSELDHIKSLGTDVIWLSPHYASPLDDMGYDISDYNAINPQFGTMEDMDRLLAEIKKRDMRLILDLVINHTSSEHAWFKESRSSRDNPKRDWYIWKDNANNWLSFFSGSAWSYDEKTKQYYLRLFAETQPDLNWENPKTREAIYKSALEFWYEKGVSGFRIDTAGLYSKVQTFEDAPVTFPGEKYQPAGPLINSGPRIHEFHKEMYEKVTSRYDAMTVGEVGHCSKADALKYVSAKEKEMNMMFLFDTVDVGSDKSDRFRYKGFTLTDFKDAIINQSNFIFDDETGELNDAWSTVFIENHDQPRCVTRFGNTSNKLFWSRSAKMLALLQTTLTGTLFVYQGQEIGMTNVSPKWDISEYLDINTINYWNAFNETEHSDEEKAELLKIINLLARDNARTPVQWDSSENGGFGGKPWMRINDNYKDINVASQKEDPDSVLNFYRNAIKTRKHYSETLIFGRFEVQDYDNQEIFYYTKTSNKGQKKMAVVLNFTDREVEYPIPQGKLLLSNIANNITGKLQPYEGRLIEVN
Briefly: inhibition of α-pNPG hydrolysis (p-nitrophenol release). The format is biochemical. The settings on record: competitive; 0.1-3.0 mM α-pNPG; 100 mM K-phosphate pH 6.5, 0.1 mM EDTA, 37 °C; 5 min pre-incubation; read-out: K i (mM) of Op maltase.

Substrate in data set [2]: OC[C@H]1O[C@@](CO)(O[C@H]2O[C@H](CO)[C@@H](O)[C@H](O)[C@H]2O)[C@@H](O)[C@@H]1O
As to the kind of experiment: initial rate of glucose release. The format is biochemical, Ogataea angusta. The settings on record: 100 mM K-phosphate pH 6.5, 0.1 mM EDTA, 37 °C. The text has this: (§1) initial rate of glucose release on Op MAL1 (maltase protein MAL1 of Ogataea polymorpha)

Substrate in data set [3]: CO[C@H]1O[C@H](CO)[C@@H](O)[C@H](O)[C@H]1O
Briefly: initial rate of glucose release. The data set is classed as biochemical, Ogataea angusta. The settings on record: 100 mM K-phosphate pH 6.5, 0.1 mM EDTA, 37 °C.
Description: as §1

Substrate in the data set “purified protein”: O=[N+]([O-])c1ccc(O[C@H]2O[C@H](CO)[C@@H](O)[C@H](O)[C@H]2O)cc1
As to the kind of experiment: purified protein. The settings on record: 100 mM K-phosphate pH 6.5, 0.1 mM EDTA, 37 °C.

As to `C[C@H]1O[C@H](O[C@H]2[C@H](O)[C@@H](O)[C@@H](O[C@H]3[C@H](O)[C@@H](O)C(O)O[C@@H]3CO)O[C@@H]2CO)[C@H](O)[C@@H](O)[C@@H]1N[C@H]1C=C(CO)[C@@H](O)[C@H](O)[C@H]1O` (some centres unmarked) [Acarbose], the Ki in data set [1] was 0.0065 ± 0.0008 mM.
On the same count and under the same terms, the value for `OC[C@H]1OC(O)[C@H](O)[C@@H](O)[C@@H]1O` (stereo partly drawn) [D-Glucose] was 5.1 ± 0.7 mM.

B1: Op MAL1 (maltase protein MAL1 of Ogataea polymorpha) (Ogataea angusta) (protein)
chain: T1 sequence (Q9P8G8 1-564)
One may read the Km as the concentration of substrate that gives half-maximal velocity. The kcat is the maximal rate divided by the concentration of active sites. One may read the kcat/Km as the second-order rate constant that governs catalysis at low substrate concentration. Consider B1, for which, in data set [2], the Km came to 25.1 ± 2.4 mM, the kcat was found to be 183 ± 6.95 s⁻¹ and the kcat/Km worked out at 7290 M⁻¹ s⁻¹. Besides, in data set [3], the Km was 35.5 ± 3.3 mM, the kcat turned out to be 30.1 ± 1.1 s⁻¹ and the kcat/Km worked out at 848 M⁻¹ s⁻¹. In the data set “purified protein”, the Km is 0.52 ± 0.05 mM, the kcat was 141 s⁻¹ and the catalytic efficiency (kcat/Km) is 272000 M⁻¹ s⁻¹.
